The text below walks through data of patent publication US20250026820A1 (WUHAN YZY BIOPHARMA, published 2025).

In general, EC50 refers to the midpoint of the concentration-response curve. A lower EC50 goes with an effect from little substance.

One experiment deals with BSA (UniProt P02769). The experiment in a line: ELISA; plate coated with BSA (control); E. coli supernatant; HRP anti-VHH. In general terms: In an ELISA, binding on a coated surface is turned into a signal by an enzyme label.
The target in experiment [1] is T1, TGFβ1 protein (GenScript Z03411) (human, UniProt P01137 279-390).
T1 construct: also called human TGF-β1; TGFβ1 antigen
T1 sequence (P01137 279-390 limits assumed, one chain of several): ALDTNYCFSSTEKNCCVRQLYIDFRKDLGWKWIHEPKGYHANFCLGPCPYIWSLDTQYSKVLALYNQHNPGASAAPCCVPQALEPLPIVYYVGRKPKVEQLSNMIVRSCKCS
The experiment in a line: ELISA; plate coated with TGFβ1; E. coli supernatant; HRP anti-VHH. The protocol: A microplate was coated with 2 μL/well of the TGFβ1 protein solution and BSA, respectively, at 4° C. overnight; the supernatant was discarded, 300 μL of a blocking solution (PBS containing 3% BSA) was added to each well, and the plate was blocked at 37° C. for 2 h; the supernatant collected by centrifugation was added to the well of the microplate at 200 μL per well, the plate was left to stand and incubated at room temperature for 2 h, and the supernatant was discarded; the plate was washed for 3 times with 200 μL/well PBST (PBS containing 0.1% Tween 20); a diluted HRP-labeled anti-VHH secondary antibody (Genscript, A01861) was added, the secondary antibody was used after a 1:10000 dilution, the diluent was PBS containing 1% BSA, the volume was 100 μL/well, and the plate was incubated at room temperature for 1 h; the plate was washed for 5 times with 200 μL/well PBST; a TMB chromogenic solution (BD, 55214) was added at 100 μL/well for color development at 37° C. for 8 min. 2 M HCl stop solution was added at 100 μL/well. After the addition of the stop solution, the 450 nm values were read using a microplate reader within 30 min.

The target in experiment [2] is T2, TGFβ2 protein (GenScript Z03429) (human, UniProt P61812 303-414).
T2 construct: also called human TGF-β2
T2 sequence (looked up): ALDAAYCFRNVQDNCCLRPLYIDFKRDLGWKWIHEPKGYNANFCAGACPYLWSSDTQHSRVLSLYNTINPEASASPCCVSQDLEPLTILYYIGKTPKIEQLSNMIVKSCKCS
The experiment in a line: ELISA; plate coated with human TGF-β2; antibody titrated; HRP anti-human Fc. How it is done: (§1) A microplate was coated with 2 μL/well of the human TGF-β1/2/3 protein solution, respectively, at 4° C. overnight; the supernatant was discarded, 300 μL of a blocking solution (PBS containing 3% BSA) was added to each well, and the plate was blocked at 37° C. for 2 h; the antibodies were gradiently diluted, and the diluent was PBS containing 1% BSA. For example, the initial concentration of the antibody dilution was 500 nM, and diluted 10-fold to obtain 8 concentration gradients. The diluted antibody was added to the well of the microplate at 200 μL per well, the plate was left to stand and incubated at room temperature for 2 h, and the supernatant was discarded; the plate was washed for 3 times with 200 μL/well PBST (PBS containing 0.1% Tween 20); a diluted HRP-labeled anti-human Fc secondary antibody (SIGMA, A8667) was added, the secondary antibody was used after a 1:20000 dilution, the diluent was PBS containing 1% BSA, the volume was 100 μL/well, and the plate was incubated at room temperature for 1 h; the plate was washed for 5 times with 200 μL/well PBST; a TMB chromogenic solution (BD, 55214) was added at 100 μL/well for color development at 37° C. for 8 min. 2 M HCl stop solution was added at 100 μL/well. After the addition of the stop solution, the 450 nm values were read using a microplate reader within 30 min. Data were analyzed using GraphPad Prism 6.0 software and avidity fitting was performed to give EC50 values.

In experiment [3] the target is T3, TGFβ3 protein (GenScript Z03430) (human, UniProt P10600 301-412).
T3 construct: also called human TGF-β3
T3 sequence (looked up): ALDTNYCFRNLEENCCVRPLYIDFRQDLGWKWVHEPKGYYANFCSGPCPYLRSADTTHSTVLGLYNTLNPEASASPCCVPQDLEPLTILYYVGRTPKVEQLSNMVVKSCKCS
Put plainly: ELISA; plate coated with human TGF-β3; antibody titrated; HRP anti-human Fc. How it is done:
as §1

In experiment [4] the target is T1, TGFβ1 protein (GenScript Z03411). The experiment in a line: ELISA; plate coated with human TGF-β1; antibody titrated; HRP anti-human Fc. The protocol: as §1

Numbering of substitutions follows the chain as printed.

Chain of BSA (P02769 25-607 limits assumed): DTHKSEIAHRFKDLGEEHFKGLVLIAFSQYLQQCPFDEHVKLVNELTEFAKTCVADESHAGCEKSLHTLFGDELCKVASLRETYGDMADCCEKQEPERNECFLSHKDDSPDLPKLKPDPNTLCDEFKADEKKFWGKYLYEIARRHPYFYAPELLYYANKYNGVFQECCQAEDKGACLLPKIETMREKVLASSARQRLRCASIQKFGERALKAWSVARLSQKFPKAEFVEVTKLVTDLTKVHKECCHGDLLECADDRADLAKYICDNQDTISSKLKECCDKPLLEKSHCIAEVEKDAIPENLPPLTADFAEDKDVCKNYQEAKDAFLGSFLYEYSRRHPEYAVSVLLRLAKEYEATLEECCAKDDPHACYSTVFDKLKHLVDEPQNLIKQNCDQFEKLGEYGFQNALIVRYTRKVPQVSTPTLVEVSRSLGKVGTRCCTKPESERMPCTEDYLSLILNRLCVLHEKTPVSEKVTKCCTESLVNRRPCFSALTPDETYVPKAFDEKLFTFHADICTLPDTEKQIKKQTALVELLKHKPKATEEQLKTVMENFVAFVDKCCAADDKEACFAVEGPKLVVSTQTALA

B1: B2A9 heavy chain single-domain antibody (VHH)
VHH: QLQLVESGGGLVQPGGSLRLSCTASGSTFEIYPIYAMAWFRQTPGKQRELVALTTDVKTNYADSVKGRFTISRDNAKNTVYLQMNMLQPEDTAVYVCNVGVVRGGLQNYWGQGTQVTVSS
notes: Tested as crude supernatant of IPTG-induced E. coli TG1 carrying the pComb3XSS clone
As for B1, in the experiment with BSA, the OD value of binding to BSA was 0.061 OD 450 nm. For the same molecule, the “OD value of binding to TGFβ1” value in experiment [1] stood at 1.92 OD 450 nm.

B2: B2A9 anti-TGFβ single domain heavy-chain antibody (variable region, linker peptide, human IgG1 heavy chain constant region) (Fc fusion)
heavy: B1 VHH
notes: not shown: linker peptide (GGGGS)n, n=1, 2 or 3; human IgG1 heavy chain constant region, GenBank No. AK303185.1
For B2, the EC50 amounted to 1.25 nM in experiment [2], 1.46 nM in experiment [3] and 5.43 nM in experiment [4].

B3: B3D2 heavy chain single-domain antibody (VHH)
VHH: QLQLVESGGGLVQPGGSLTLSCLASGFTFSHYPMSWVRQAPGKGLEWVSVIGSDGAIKHYSDSVKGRFAISRDNAKNTLYLQMNSLKPEDTAVYYCAEGDSRYVRNRARGQGTQVTVSS
notes: as for B1
With B3, the OD value of binding to BSA with BSA came out at 0.061 OD 450 nm. Also, the “OD value of binding to TGFβ1” value in experiment [1] was 1.99 OD 450 nm.

B4: B3F1 anti-TGFβ single domain heavy-chain antibody (variable region, linker peptide, human IgG1 heavy chain constant region) (Fc fusion)
heavy: B3 VHH with L23A, H31L, A56G, I57T, N106G, A108T
notes: as for B2
On to B4, for which the EC50 in experiment [2] worked out at 148 nM; in experiment [3] it was 1.33 nM.

B5: B3F1 heavy chain single-domain antibody (VHH)
VHH: B3 VHH with L23A, H31L, A56G, I57T, N106G, A108T
On to B5, for which the OD value of binding to BSA with BSA worked out at 0.051 OD 450 nm.

B6: B3C5 heavy chain single-domain antibody (VHH)
VHH: B3 VHH with L23A, A56G, I57T, H59I, S71A, N106G, A108T
In the experiment with BSA, B6 showed an OD value of binding to BSA of 0.051 OD 450 nm.

B7: B3C5 anti-TGFβ single domain heavy-chain antibody (variable region, linker peptide, human IgG1 heavy chain constant region) (Fc fusion)
heavy: B3 VHH with L23A, A56G, I57T, H59I, S71A, N106G, A108T
notes: as for B2
Take B7: the EC50 was determined as 3.52 nM in experiment [2] and 1.35 nM in experiment [3].

B8: B1B7 heavy chain single-domain antibody (VHH)
VHH: QVQLVESGGGLVQPGGSLTLSCTASGSMFSFYTMGWYRQATGKQRELVAGISLGGETTYAPSVKDRFTISRDNAKNTVYLQMNSLKPEDTALYNCNAYWGEDYWGQGTQVTVSS
notes: as for B1
B8 returned an OD value of binding to BSA with BSA of 0.067 OD 450 nm. For the same molecule, the “OD value of binding to TGFβ1” value in experiment [1] came to 1.95 OD 450 nm.

B9: B2A2 heavy chain single-domain antibody (VHH)
VHH: EVQVVESGGAAVQPGESLRLSCAASGSIFNTATMGWFRQAPGKQREMVAIITDGGRTNYADSVKGRFTISRDATKNTVYLQMNSLNPGDTAVYYCNALTIVPRSSIYWGQGTQVTVSS
notes: as for B1
In the experiment with BSA, B9 displayed an OD value of binding to BSA of 0.064 OD 450 nm. Besides, in experiment [1], the “OD value of binding to TGFβ1” value came out at 1.69 OD 450 nm.

B10: B3D6 heavy chain single-domain antibody (VHH)
VHH: EVQLVESGGGLVQAGGSLRLSCAASGRSFSSLAVGWFRQPPGKKREIVAAVNWSGTSTYYPDSVKGRFSISRDNTKNTVYLQMNSLKPEDTAVYYCAADPDLRWLKLWGYEYWGQGTQVTVSS
notes: as for B1
As for B10, the OD value of binding to BSA with BSA was determined as 0.067 OD 450 nm. Besides, the “OD value of binding to TGFβ1” value in experiment [1] was 1.65 OD 450 nm.

B11: B1F8 heavy chain single-domain antibody (VHH)
VHH: QVQLVESGGGLVQPGGSLRLSCAASGSIFGVFYMGWFRQAPGKQREMVAISTDDRTSYVDSVKGRFTISRDNAKNTLALQMNSLKPEDTAVYFCNLNQLGTDYWGPGTQVTVSS
notes: Tested as crude supernatant of IPTG-induced E. coli TG1 carrying the pComb3XSS clone; also called BIF8
The molecule B11 displayed an OD value of binding to BSA with BSA of 0.07 OD 450 nm. Besides, the “OD value of binding to TGFβ1” value in experiment [1] was 1.03 OD 450 nm.

B12: B3F3 heavy chain single-domain antibody (VHH)
VHH: B11 VHH with G16E, A23T, E46D, V59A
notes: as for B1
For the molecule B12, the OD value of binding to BSA in the experiment with BSA worked out at 0.071 OD 450 nm. For the same molecule, in experiment [1], the “OD value of binding to TGFβ1” value turned out to be 2.29 OD 450 nm.

B13: B1B8 heavy chain single-domain antibody (VHH)
VHH: EVQVVESGGGLVQPGGSLTLSCVASGFAFSFTPMRWVRQAPGKGLEWVSSISIRGDTTDYADSVKGRFTISRDNAKNTLYLQMNSLKPEDTAVYYCSRGSSISTSTERTQGTQVTVSS
notes: as for B1
For B13, the OD value of binding to BSA with BSA was determined as 0.063 OD 450 nm. Besides, the “OD value of binding to TGFβ1” value in experiment [1] was determined as 1.92 OD 450 nm.

B14: B2C2 heavy chain single-domain antibody (VHH)
VHH: QLQLVESGGGLVQPGGSLRLSCAGSGIAFSRVTMAWSRQAPGKQRELVALITDGNRSAYVDSVKGRFTISRDNTKKTMSLQMNDLKPEDTAVYYCVATDWVPTRRDYWGQGTQVTVSS
notes: as for B1
With B14, the OD value of binding to BSA with BSA is 0.058 OD 450 nm. Moreover, the “OD value of binding to TGFβ1” value in experiment [1] came to 2.05 OD 450 nm.

B15: B2C9 heavy chain single-domain antibody (VHH)
VHH: EVQVVESGGGLVQPGGSLRLSCAASASVFSWSVMGWFRQAPGKQRELVAISSGDRETYADSVKGRFTISRDNAKNTVYLQMDTLKPEDTAVYFCNAYVPVGESRGDYWGQGTQVTVSS
notes: as for B1
Regarding B15, the OD value of binding to BSA in the experiment with BSA was determined as 0.055 OD 450 nm. Besides, the “OD value of binding to TGFβ1” value in experiment [1] was 1.88 OD 450 nm.

B16: B2H1 heavy chain single-domain antibody (VHH)
VHH: QLQLVESGGGLVQPGESLRLSCAASGIIFSASTMAWFRQAPGKQRELVALITDGDRTNYADSVKGRFTISRDNAENTVYLQMTELKFEDTAVYYCNAFWLKAYWGQGTQVTVSS
notes: as for B1
In the experiment with BSA, B16 yielded an OD value of binding to BSA of 0.057 OD 450 nm. Also, in experiment [1], the “OD value of binding to TGFβ1” value was 2.06 OD 450 nm.

B17: B2A1 heavy chain single-domain antibody (VHH)
VHH: QVQLVESGGGLVQPGGSLRLSCAASGITFSHYDMAWFRQAPEKQRELVALITSGGKTAYADSVKGRFAISRDNAKNTVYLQMNSLKAGDTAVYYCNAHWVLTSQYWGQGTQVTVSS
notes: as for B1
Regarding B17, in the experiment with BSA, the OD value of binding to BSA worked out at 0.057 OD 450 nm. Moreover, the “OD value of binding to TGFβ1” value in experiment [1] is 1.29 OD 450 nm.

B18: B2A1 anti-TGFβ single domain heavy-chain antibody (variable region, linker peptide, human IgG1 heavy chain constant region) (Fc fusion)
heavy: B17 VHH
notes: as for B2
For the molecule B18, the EC50 in experiment [2] is 1.07 nM; in experiment [3] it was 1.25 nM; in experiment [4], 3.82 nM.

B19: B2G8 heavy chain single-domain antibody (VHH)
VHH: QVQLVESGGGLVQPGGSLRLSCAASGISFSYYDMGWFRQAPGKQRELVAIVTSGGRTNYADSVKGRFTISRETAKSTMYLQMNSLKSEDTGVYYCNAHWIVTTDYWGQGTQVTVAS
notes: as for B1
In turn, B19 had an OD value of binding to BSA with BSA of 0.064 OD 450 nm. The “OD value of binding to TGFβ1” value in experiment [1] was 1.85 OD 450 nm.

B20: B1C5 heavy chain single-domain antibody (VHH)
VHH: EVQLVESGGGEVRPGGSLRLSCVVSGFTKDYGAIGWFRQAPGQEREGLGCIARKDGDTWSADSVKGRFTISRDNVRNTVYLQMNALKPEDRGVYYCAGDPSALYGCSDRSSEYQYWGQGTQVTVSS
notes: as for B1
The molecule B20 showed an OD value of binding to BSA in the experiment with BSA of 0.052 OD 450 nm. Moreover, the “OD value of binding to TGFβ1” value in experiment [1] is 2.08 OD 450 nm.

B21: B2F6 heavy chain single-domain antibody (VHH)
VHH: EVQLVESGGGLVQPGGSLRLSCAASGFTFSYYVASWYRQAPGKERELVATTFPPDGSPHYADSVKGRFAISRDNAKNTVFLQMDSLKSEDTAVYYCNARRVEGHGIYWGQGTQVTVSS
In the experiment with BSA, B21 had an OD value of binding to BSA of 0.053 OD 450 nm.

B22: B2F6 anti-TGFβ single domain heavy-chain antibody (variable region, linker peptide, human IgG1 heavy chain constant region) (Fc fusion)
heavy: B21 VHH
notes: as for B2
Regarding B22, the concentration for a half-maximal effect (EC50) in experiment [2] was 0.774 nM; in experiment [3], 1.03 nM.
